Data reported in patent US20190381184A1 (UNIVERSITY OF NORTH CAROLINA AT CHAPEL HILL, published 2019).

What was measured:
PD-L1 [1] = assay: Octet (BLI); compared with the endogenous PD-1/PD-L1 interaction
PD-L1 [2] = assay: Octet binding kinetics
PD-L1 [3] = assay: Octet (BLI) binding kinetics of the trivalent PD-L1 trap with PD-L1

Chain of PD-L1 (chain, as listed by the source): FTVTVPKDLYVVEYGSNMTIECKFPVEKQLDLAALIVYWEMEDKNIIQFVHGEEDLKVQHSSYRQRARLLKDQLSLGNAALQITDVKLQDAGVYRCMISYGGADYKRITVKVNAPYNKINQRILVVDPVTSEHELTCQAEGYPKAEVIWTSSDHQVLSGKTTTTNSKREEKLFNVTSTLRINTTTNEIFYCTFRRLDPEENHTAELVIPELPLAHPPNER

fold higher than between endogenous PD-1 and PD-L1 (PD-L1 [1]): 10000 fold
Kd (PD-L1 [2]): ~0.0162 nM
Kd (PD-L1 [3]): ~0.016 nM
B1: trivalent PD-L1 trap (PD-1 extracellular domain - flexible linker - CMP-1 trimerization domain fusion, self-assembled trimer) (other)
chain: GSGPPTFSPALLVVTEGDNATFTCSFSNTSESFVLNWYRMSPSNQTDKLAAFPEDRSQPGQDSRFRVTQLPNGRDFHMSVVRARRNDSGTYLCGAISLAPKAQIKESLRAELRVTERRAEGPQPQPKPQPKPEPEPQPQGGSEEDPCACESILKFEAKVEGLLQALTRKLEAVSGRLAVLENRIIAAAGAPVPYPDPLEPRGGSHHHHHH
notes: also called trimeric trap; trivalent protein
